In patent publication US20130133089A1 (MEDICAL RESEARCH INFRASTRUCTURE AND HEALTH SERVICES FUND OF …, published 2013):
Residue numbers refer to the chain shown, from its start. In names and notes the source's numbering stands. Several values for one entry are separate records, joined by “and”; a condition that tells them apart may be missing. Equal entries are not always repeated.

T1: Recombinant human leptin binding domain (hLBD) (human, UniProt P48357 428-635, biotinylated with Sulfo-NHS-LC-Biotin in the yeast display assays; not labelled when immobilized in the plate binding assay)
T1 construct: CRH2 sub-domain of the leptin receptor; Prepared in the applicants' laboratory; also called soluble human leptin receptor; CHR2
T1 sequence (looked up): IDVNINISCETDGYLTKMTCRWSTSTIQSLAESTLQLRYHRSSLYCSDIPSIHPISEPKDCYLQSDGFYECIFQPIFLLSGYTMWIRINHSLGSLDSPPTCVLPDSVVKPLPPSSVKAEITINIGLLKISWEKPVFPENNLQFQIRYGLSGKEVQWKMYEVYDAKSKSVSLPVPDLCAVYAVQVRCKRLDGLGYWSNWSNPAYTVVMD

B1: mouse leptin antagonist H16 (D23G, G112S + L39A/D40A/F41A) (ligand)
chain: AVPIQKVQDDTKTLIKTIVTRINGISHTQSVSAKQRVTGAAAIPGLHPILSLSKMDQTLAVYQQVLTSLPSQNVLQIANDLENLRDLLHLLAFSKSCSLPQTSGLQKPESLDSVLEASLYSTEVVALSRLQGSLQDILQQLDVSPEC
notes: mature; also called H16 (antagonist)
B2: recombinant mouse leptin mutein H16 (D23G, G112S), agonist (ligand)
chain: B1 chain with A40L, A41D, A42F
notes: mature
B3: superactive mouse leptin antagonist (SMLA), D23L/L39A/D40A/F41A mouse leptin, P41160 22-167 (ligand)
chain: VPIQKVQDDTKTLIKTLVTRINLISHTQSVSAKQRVTGAAAIPGLHPILSLSKMDQTLAVYQQVLTSLPSQNVLQIANDLENLRDLLHLLAFSKSCSLPQTSGLQKPESLDGVLEASLYSTEVVALSRLQGSLQDILQQVDLSPGC
B4: pegylated superactive mouse leptin antagonist (PEG-SMLA), P41160 22-167 (ligand)
chain: B3 chain
modifications: here or on the partner: mPEG-propionyl-ALD 20 kDa, preferentially on the N-terminal amino group (85% monopegylated, ~9% double pegylated)
B5: wild type mouse leptin displayed on yeast as Aga2p fusion (ligand, UniProt P41160 22-167, looked up, not shown: large carriers; small tags and cut ends)
chain: B3 chain with L17I, L23D, A39L, A40D, A41F, V140L, L142V, G145E
notes: mature; also called mlep wt; mlep, wt1
B6: yeast-displayed mouse leptin clone L1 (D23N, Q34L, L114P) (ligand, UniProt P41160 22-167, looked up, not shown: large carriers; small tags and cut ends)
chain: B3 chain with L17I, L23N, Q34L, A39L, A40D, A41F, L114P, V140L, L142V, G145E
notes: mature
B7: yeast-displayed mouse leptin clone H19 (D23G, T37A, G44D) (ligand, UniProt P41160 22-167, looked up, not shown: large carriers; small tags and cut ends)
chain: B3 chain with L17I, L23G, T37A, A39L, A40D, A41F, G44D, V140L, L142V, G145E
notes: mature
B8: yeast-displayed mouse leptin clone H16 (D23G, G112S) (ligand, UniProt P41160 22-167, looked up, not shown: large carriers; small tags and cut ends)
chain: B3 chain with L17I, L23G, A39L, A40D, A41F, G112S, V140L, L142V, G145E
notes: mature
B9: yeast-displayed mouse leptin clone H17 (S109F) (ligand, UniProt P41160 22-167, looked up, not shown: large carriers; small tags and cut ends)
chain: B3 chain with L17I, L23D, A39L, A40D, A41F, S109F, V140L, L142V, G145E
notes: mature
B10: yeast-displayed mouse leptin clone H2 (A125T, S132Y) (ligand, UniProt P41160 22-167, looked up, not shown: large carriers; small tags and cut ends)
chain: B3 chain with L17I, L23D, A39L, A40D, A41F, A125T, S132Y, V140L, L142V, G145E
notes: mature
B11: yeast-displayed mouse leptin clone H6 (D23G, V30D, Y119H) (ligand, UniProt P41160 22-167, looked up, not shown: large carriers; small tags and cut ends)
chain: B3 chain with L17I, L23G, V30D, A39L, A40D, A41F, Y119H, V140L, L142V, G145E
notes: mature
B12: yeast-displayed mouse leptin clone H7 (K11R, Q34R, T37A, F92C, S97Y, I136V) (ligand, UniProt P41160 22-167, looked up, not shown: large carriers; small tags and cut ends)
chain: VPIQKVQDDTRTLIKTIVTRINDISHTQSVSAKRRVAGLDFIPGLHPILSLSKMDQTLAVYQQVLTSLPSQNVLQIANDLENLRDLLHLLACSKSCYLPQTSGLQKPESLDGVLEASLYSTEVVALSRLQGSLQDVLQQLDVSPEC
notes: mature; also called H18; H27
B13: yeast-displayed mouse leptin clone H22 (T12I) (ligand, UniProt P41160 22-167, looked up, not shown: large carriers; small tags and cut ends)
chain: B12 chain with R11K, T12I, R34Q, A37T, C92F, Y97S, V136I
notes: mature
B14: yeast-displayed mouse leptin clone H3 (D23G, L68M, S97F, S132Y) (ligand, UniProt P41160 22-167, looked up, not shown: large carriers; small tags and cut ends)
chain: B12 chain with R11K, D23G, R34Q, A37T, L68M, C92F, Y97F, S132Y, V136I
notes: mature; also called H15; H4
B15: yeast-displayed mouse leptin clone H30 (D23H) (ligand, UniProt P41160 22-167, looked up, not shown: large carriers; small tags and cut ends)
chain: B12 chain with R11K, D23H, R34Q, A37T, C92F, Y97S, V136I
notes: mature
B16: yeast-displayed mouse leptin clone H12 (S97Y) (ligand, UniProt P41160 22-167, looked up, not shown: large carriers; small tags and cut ends)
chain: B12 chain with R11K, R34Q, A37T, C92F, V136I
notes: mature; also called H20; H24
B17: human leptin super antagonist (SHLA), human leptin D23L/L39A/D40A/F41A, P41159 22-167 (ligand)
chain: VPIQKVQDDTKTLIKTIVTRINLISHTQSVSSKQKVTGAAAIPGLHPILTLSKMDQTLAVYQQILTSMPSQNVIQISNDLENLRDLLHVLAFSKSCHLPWASGLETLDSLGGVLEASGYSTEVVALSRLQGSLQDMLWQLDLSPGC

Key:
[1] = target: T1, Recombinant human leptin binding domain …; experiment: competitive plate binding assay: immobilized hLBD, biotinylated mouse leptin as ligand, mutein as competitor
Protocol: Biotinylated mouse leptin served as the ligand in all competitive experiments and the respective mouse leptin or mouse or human leptin antagonist muteins as competitors. The hLBD was used as the receptor source. Polystyrene 96-well microtiter plates were coated overnight at 4° C. with 100 μl of 40 μM hLBD in PBS pH 7.4. Wells were then washed one time with PBST (PBS containing 0.05 Tween 20) and blocked with PBS containing 3% skim milk for two hours in room temperature. All further incubations were carried out at room temperature. Wells were washed one time with PBST and incubated with different concentrations of un-labeled leptins (50 μl/well) for 30 min and then 50 μl of 62.5 μM of biotinylated mouse leptin were added to each well for another two hours. Then the wells were washed three times with PBST and incubated with 1:30,000 streptavidin-HRP in PBS containing 1 Tween 20 for one hour. Subsequently the wells were washed three times with PBST and the reaction was quantified in 450 nm by microplate reader ELISA Plate Reader ELx808—Bio-Tek Instrument Inc. (Winooski, Vt., USA) using TMB according to manufacturer's instructions.

[2] = target: long form of human leptin receptor (hLEPR) on BAF/3 or H-49 (HEK-293) cells (human), P48357; experiment: cell-based or functional assay
Chain of long form of human leptin receptor (hLEPR) on BAF/3 or H-49 (HEK-293) cells (human), P48357 (P48357 22-1165): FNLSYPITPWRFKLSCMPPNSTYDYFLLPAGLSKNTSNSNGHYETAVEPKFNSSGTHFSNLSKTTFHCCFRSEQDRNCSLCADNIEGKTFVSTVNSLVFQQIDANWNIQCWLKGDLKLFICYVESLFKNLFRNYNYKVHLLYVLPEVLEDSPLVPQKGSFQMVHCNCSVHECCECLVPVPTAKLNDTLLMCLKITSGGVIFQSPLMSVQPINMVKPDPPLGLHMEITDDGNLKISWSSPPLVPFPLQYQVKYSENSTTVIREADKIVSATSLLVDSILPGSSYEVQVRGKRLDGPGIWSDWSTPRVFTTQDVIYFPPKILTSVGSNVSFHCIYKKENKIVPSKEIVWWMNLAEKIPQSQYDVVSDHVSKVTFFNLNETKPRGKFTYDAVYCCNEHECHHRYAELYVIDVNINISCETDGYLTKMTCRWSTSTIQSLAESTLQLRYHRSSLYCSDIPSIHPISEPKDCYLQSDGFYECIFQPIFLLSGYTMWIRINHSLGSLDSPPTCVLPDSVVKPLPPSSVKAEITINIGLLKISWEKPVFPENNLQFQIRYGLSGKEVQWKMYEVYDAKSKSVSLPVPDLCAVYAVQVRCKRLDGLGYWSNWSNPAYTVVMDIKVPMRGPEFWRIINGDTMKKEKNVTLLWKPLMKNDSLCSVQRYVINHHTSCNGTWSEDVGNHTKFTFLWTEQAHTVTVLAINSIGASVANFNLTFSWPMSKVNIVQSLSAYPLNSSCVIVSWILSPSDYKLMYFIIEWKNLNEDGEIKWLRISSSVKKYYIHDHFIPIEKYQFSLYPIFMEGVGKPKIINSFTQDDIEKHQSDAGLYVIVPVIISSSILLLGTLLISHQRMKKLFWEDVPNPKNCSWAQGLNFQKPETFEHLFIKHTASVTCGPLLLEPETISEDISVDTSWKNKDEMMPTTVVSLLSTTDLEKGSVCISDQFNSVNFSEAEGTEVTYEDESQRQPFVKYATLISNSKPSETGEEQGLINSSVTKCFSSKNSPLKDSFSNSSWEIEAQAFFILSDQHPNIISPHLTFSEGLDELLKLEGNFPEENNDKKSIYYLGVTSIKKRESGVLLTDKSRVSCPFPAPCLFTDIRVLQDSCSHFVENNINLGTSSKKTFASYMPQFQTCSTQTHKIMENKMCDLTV

[3] = target: T1, Recombinant human leptin binding domain …; experiment: yeast display, flow cytometry titration with biotinylated hLBD (FIG. 4A)
Description: (§1) Those 7 mouse leptin mutants were selected for preparation of respectively mutated leptins expressed in E. coli.

[4] = target: T1, Recombinant human leptin binding domain …; experiment: yeast display, flow cytometry titration with biotinylated hLBD (FIG. 4B)
Description: as §1

Row | Binder | Kd [3] | Kd [4] | Bmax [4] [MFI] | Bmax [3] [MFI] | also measured
1 | B1 | – | – | – | – | fold increase in affinity as compared to the WT mouse leptin antagonist [1]: 11 fold
2 | B2 | – | – | – | – | BAF/3 bioassay: fold increase in bioactivity as compared to the WT mouse leptin [2]: 0.8 fold; Luciferase bioassay: fold increase in bioactivity as compared to the WT mouse leptin [2]: 0.9 fold; fold increase in affinity as compared to the WT mouse leptin [1]: 20.3 fold
3 | B3 | – | – | – | – | BAF/3 bioassay: fold increase in bioactivity as compared to the WT mouse leptin antagonist [2]: 13.9 fold; Luciferase bioassay: fold increase in bioactivity as compared to the WT mouse leptin antagonist [2]: 13.4 fold; biological (inhibitory) activity, FIG. 12A: fold higher than that of HLA [2]: > 9 fold
4 | B4 | – | – | – | – | biological activity in H-49 cells: fold reduction as compared to the non-pegylated SMLA [2]: 9 fold
5 | B5 | 159 nM and 115 nM | 95 nM and 95.7 nM | – | – | –
6 | B6 | – | 158 nM | 1680 | – | –
7 | B7 | 104 nM | 68.4 nM | 966 | 968 | –
8 | B8 | – | 44 nM | 550 | – | –
9 | B9 | 620 nM | – | – | 3600 | –
10 | B10 | – | 243 nM | 2570 | – | –
11 | B11 | – | 99.1 nM | 1290 | – | –
12 | B12 | 126 nM | 83.5 nM | 1140 | 1590 | –
13 | B13 | 122 nM | 82.3 nM | 719 | 852 | –
14 | B14 | 91.7 nM | 92.8 nM | 1350 | 1450 | –
15 | B15 | 59.5 nM | 40.9 nM | 741 | 847 | –
16 | B16 | 130 nM | 103 nM | 785 | 961 | –
17 | B17 | – | – | – | – | biological (inhibitory) activity, FIG. 12A: fold higher than that of HLA [2]: > 9 fold
